Data from paper PMC12550933, “Novel Humanized Anti-HER3 Antibodies: Structural Characterization and Therapeutic Activity” (Antibodies, 2025).

Key:
Settings in all cases: both partners purified
[1] = molecular target: T1, Rhesus HER3/HER3 (HisTag) (Macaca mulatta, UniProt H9ERZ8); test: ELISA; plates coated with 1 µg/mL recombinant human, mouse, rat or rhesus HER3 (His tag); purified antibodies, dose-response
T1 construct: rhesus HER3 (ErbB3), bought recombinant protein; probably the extracellular domain (surmise); also called recombinant rhesus HER3; source: bought: Sinobiological

Rat HER3/HER3 (HisTag) = molecular target: T2, Rat HER3/HER3 (HisTag) (rat, UniProt Q62799); test: as above
T2 construct: rat HER3 (ErbB3), bought recombinant protein; probably the extracellular domain (surmise); also called recombinant rat HER3; source: bought: Sinobiological
T2 sequence (Q62799 20-643): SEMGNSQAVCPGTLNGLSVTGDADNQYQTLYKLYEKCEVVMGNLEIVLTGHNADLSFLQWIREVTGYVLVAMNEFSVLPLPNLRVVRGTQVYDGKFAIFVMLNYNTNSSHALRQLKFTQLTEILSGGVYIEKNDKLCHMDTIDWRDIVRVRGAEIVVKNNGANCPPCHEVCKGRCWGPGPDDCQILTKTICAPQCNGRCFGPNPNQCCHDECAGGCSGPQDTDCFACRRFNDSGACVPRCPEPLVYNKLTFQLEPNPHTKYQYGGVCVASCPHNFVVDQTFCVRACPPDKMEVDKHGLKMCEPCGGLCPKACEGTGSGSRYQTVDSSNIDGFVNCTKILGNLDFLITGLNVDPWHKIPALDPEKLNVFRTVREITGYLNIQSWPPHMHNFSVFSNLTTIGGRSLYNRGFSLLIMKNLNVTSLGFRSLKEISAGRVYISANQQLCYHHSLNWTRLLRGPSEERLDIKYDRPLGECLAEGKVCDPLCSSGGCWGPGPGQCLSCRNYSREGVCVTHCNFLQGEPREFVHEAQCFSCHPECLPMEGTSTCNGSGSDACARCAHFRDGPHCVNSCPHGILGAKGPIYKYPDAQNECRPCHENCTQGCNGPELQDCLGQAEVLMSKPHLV

Mouse HER3/HER3 (HisTag) = molecular target: T3, Mouse HER3/HER3 (HisTag) (mouse, UniProt Q61526); test: as above
T3 construct: mouse HER3 (ErbB3), bought recombinant protein; probably the extracellular domain (surmise); also called recombinant mouse HER3; source: bought: Sinobiological
T3 sequence (Q61526 20-641): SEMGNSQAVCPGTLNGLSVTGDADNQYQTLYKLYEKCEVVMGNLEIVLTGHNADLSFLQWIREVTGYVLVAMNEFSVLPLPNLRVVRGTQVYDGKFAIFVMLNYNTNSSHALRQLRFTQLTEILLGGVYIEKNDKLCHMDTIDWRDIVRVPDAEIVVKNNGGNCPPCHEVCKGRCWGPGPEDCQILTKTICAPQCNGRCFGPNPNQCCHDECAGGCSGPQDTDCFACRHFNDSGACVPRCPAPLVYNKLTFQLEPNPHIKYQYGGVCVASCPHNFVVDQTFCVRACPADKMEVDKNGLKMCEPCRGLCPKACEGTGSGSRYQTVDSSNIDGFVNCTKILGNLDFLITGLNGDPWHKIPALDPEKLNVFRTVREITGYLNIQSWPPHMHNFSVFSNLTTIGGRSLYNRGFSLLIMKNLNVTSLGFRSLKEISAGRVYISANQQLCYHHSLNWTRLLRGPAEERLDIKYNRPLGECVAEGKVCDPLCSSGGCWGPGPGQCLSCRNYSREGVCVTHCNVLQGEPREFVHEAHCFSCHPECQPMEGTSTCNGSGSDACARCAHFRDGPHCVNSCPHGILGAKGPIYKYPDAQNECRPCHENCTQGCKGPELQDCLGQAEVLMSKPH

[2] = molecular target: T4, human HER3-Fc chimeric protein (Homo sapiens, UniProt P21860); test: SPR; Biacore X100; HER3 Fc chimera coupled to a CM5 chip; antibodies as analytes, single-cycle kinetics, 25 °C; duplicate; KD = koff/kon
T4 construct: human HER3 (ErbB3) part of the bought Fc chimera; also called HER3 Fc chimera protein; Recombinant human HER3/HER3-Fc chimeric protein; source: bought: R&D Systems
T4 sequence (P21860 20-643, change not shown): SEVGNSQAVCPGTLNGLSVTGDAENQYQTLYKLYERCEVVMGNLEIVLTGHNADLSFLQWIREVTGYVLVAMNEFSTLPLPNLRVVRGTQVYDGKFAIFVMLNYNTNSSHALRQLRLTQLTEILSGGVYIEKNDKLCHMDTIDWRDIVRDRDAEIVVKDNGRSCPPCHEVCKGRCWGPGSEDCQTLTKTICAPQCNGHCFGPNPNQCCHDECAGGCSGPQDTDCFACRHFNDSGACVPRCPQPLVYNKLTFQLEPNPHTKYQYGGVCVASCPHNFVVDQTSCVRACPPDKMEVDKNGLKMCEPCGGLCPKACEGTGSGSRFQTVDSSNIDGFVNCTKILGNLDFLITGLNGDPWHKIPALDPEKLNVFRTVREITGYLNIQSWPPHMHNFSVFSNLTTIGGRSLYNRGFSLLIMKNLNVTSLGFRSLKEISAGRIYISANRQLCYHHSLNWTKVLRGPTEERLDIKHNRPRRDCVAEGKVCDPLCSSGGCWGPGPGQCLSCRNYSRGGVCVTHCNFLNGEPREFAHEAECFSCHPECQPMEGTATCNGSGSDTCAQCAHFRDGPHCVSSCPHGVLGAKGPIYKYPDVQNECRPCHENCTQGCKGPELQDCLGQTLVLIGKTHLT

[3] = molecular target: T5, HER3 peptide #54 (15-mer of the overlapping peptide library) (Homo sapiens, UniProt P21860); test: peptide or protein array; ELISA on plates coated with 1 µg/mL of 15-mer HER3 peptides with 11 residues overlap; antibody at 1 µg/mL overnight at 4 °C
T5 construct: 15-mer of human HER3 from a library of 15-mers with 11 residues overlap; Limits worked out from the printed core and the 11-residue overlap; source: synthetic peptide (JPT Peptide Technologies)
T5 chain: QCNGHCFGPNPNQCC

[4] = molecular target: T6, HER3 peptide #55 (15-mer of the overlapping peptide library) (Homo sapiens, UniProt P21860); test: as above
T6 construct: 15-mer of human HER3 from a library of 15-mers with 11 residues overlap; Limits worked out from the printed core and the 11-residue overlap; source: synthetic peptide (JPT Peptide Technologies)
T6 chain: HCFGPNPNQCCHDEC

[5] = molecular target: T7, Recombinant human ErbB4 chimeric protein (Homo sapiens (Human)., UniProt Q15303); test: ELISA; plates coated with 1 µg/mL recombinant EGFR, ErbB2, HER3 or ErbB4 chimeric protein; purified antibodies at 10 µg/mL (Figure 3A) or in serial dilutions on human HER3 (Figure 3B)
T7 construct: human ErbB4 part of the bought chimeric protein; also called HER4; source: bought: R&D Systems
T7 sequence (Q15303 26-651, change not shown): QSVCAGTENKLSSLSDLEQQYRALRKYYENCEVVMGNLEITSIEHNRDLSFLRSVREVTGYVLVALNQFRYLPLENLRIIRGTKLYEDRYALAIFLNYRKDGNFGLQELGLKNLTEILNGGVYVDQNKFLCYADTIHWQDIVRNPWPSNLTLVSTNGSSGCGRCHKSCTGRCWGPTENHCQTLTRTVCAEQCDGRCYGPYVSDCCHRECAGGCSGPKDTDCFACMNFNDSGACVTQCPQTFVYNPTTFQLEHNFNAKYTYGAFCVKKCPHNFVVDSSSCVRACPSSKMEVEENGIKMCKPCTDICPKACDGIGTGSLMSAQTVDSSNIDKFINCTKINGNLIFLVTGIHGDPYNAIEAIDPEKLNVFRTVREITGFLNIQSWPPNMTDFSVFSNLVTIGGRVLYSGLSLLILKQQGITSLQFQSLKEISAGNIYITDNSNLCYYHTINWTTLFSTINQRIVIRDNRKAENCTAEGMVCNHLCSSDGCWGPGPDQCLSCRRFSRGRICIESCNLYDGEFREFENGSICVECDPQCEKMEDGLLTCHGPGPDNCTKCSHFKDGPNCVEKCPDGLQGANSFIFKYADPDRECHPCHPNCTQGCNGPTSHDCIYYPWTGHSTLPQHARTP

[6] = molecular target: T8, Recombinant human EGFR-Fc chimeric protein (Homo sapiens (Human)., UniProt P00533); test: as above
T8 construct: human EGFR part of the bought Fc chimera; also called ErbB1; HER1; source: bought: R&D Systems

[7] = molecular target: T9, Recombinant human ErbB2 chimeric protein (Homo sapiens (Human)., UniProt P04626); test: as above
T9 construct: human ErbB2 part of the bought chimeric protein; also called HER2; source: bought: R&D Systems

binding result [1]: binds
binding result (Rat HER3/HER3 (HisTag)): binds
binding result (Mouse HER3/HER3 (HisTag)): binds
Kd [2]: 1.81 nM
koff [2]: 0.000113 s⁻¹
kon [2]: 62400 M⁻¹ s⁻¹
binding result [3]: binds
binding result [4]: binds
binding result [5]: no binding (tested: 10 µg/mL)
binding result [6]: no binding (tested: 10 µg/mL)
binding result [7]: no binding (tested: 10 µg/mL)
B1: TK-hu A3-H1L1 humanized anti-HER3 monoclonal antibody (human IgG1, kappa) (antibody, V domains shown)
VH: QVTLRESGPALVKPTQTLTLTCTFSGFSLSTYGMGVGWIRQPPGKALEWLANIWWNDDKYYSSSLKTRLTISKDTSKNQVVLTMTNMDPVDTATYYCVQIANPYWYFDVWGQGTTVTVSS
VL: DIVMTQTPLSLSVTPGQPASISCKSSQSLLHSYGNTYLEWYLQKPGQSPQLLIYRVSNRFSGVPDRFSGSGSGTDFTLKISRVEAEDVGVYYCFQGSHVPFTFGQGTKLEIK
notes: humanized heavy chain variable region, variant H1 (germline CDR grafting of murine TK-A3); they are in PDB 9I1Q chain I (also J, K, L), which also holds CH1 of the Fab; human IgG1 constant region present in the expression vector; humanized light chain variant L1 in frame with the human kappa constant region; the whole light chain is in PDB 9I1Q chain F (also E, G, H); IgG1 kappa; also called …
